Source: IntAct's records for PubMed 16754960

B1: Ras-related protein Rab-21 (Mus musculus), P35282 (parent)
chain: MAAAGGGAAAAAGRAYSFKVVLLGEGCVGKTSLVLRYCENKFNDKHITTLQASFLTKKLNIGGKRVNLAIWDTAGQERFHALGPIYYRDSNGAILVYDVTDEDSFQKVKNWVKELRKMLGNEICLCIVGNKIDLEKERHVSIQEAESYAESVGAKHYHTSAKQNKGIEELFLDLCKRMIETAQVDERAKGNGSSQAGAARRGVQIIDDEPQAQSSGGCCSSG

Assays:
[1] = variants of: B1; details: with itb1_human ITGB1, P05556
[2] = variants of: B1; details: with ita2_human ITGA2, P17301
[3] = variants of: B1; details: with itb1_human ITGB1, P05556; remark: listed apart in the source

Sequence of ita2_human ITGA2, P17301 (P17301 whole entry): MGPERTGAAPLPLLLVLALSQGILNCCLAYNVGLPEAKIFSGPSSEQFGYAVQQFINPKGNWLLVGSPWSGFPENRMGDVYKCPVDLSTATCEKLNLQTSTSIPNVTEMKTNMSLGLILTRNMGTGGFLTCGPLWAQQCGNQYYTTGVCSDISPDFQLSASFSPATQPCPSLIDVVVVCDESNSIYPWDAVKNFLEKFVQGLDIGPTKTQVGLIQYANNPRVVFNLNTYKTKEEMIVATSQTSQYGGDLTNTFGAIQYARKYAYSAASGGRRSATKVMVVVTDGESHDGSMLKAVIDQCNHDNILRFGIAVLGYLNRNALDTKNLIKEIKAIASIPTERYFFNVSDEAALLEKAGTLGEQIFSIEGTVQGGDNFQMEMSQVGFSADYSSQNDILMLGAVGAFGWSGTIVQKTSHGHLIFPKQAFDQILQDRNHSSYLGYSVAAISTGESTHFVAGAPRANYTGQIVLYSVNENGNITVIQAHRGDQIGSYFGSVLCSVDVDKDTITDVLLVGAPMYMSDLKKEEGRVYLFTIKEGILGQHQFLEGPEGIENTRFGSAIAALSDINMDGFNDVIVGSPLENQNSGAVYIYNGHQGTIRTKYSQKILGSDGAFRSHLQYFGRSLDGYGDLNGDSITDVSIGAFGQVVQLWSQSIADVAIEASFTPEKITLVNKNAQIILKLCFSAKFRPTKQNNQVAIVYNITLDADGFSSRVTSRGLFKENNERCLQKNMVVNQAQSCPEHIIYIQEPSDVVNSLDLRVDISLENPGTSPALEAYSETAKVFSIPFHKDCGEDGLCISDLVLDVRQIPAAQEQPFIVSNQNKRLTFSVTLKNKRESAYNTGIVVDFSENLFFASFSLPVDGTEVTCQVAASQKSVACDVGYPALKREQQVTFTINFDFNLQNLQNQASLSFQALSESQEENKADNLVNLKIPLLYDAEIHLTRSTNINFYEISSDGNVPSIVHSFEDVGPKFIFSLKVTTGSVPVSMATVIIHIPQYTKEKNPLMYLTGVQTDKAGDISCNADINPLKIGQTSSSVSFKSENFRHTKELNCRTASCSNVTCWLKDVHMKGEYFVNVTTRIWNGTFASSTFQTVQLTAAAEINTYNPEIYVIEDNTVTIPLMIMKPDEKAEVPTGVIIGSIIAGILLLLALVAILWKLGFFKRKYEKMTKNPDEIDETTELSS
Sequence of itb1_human ITGB1, P05556 (P05556 whole entry): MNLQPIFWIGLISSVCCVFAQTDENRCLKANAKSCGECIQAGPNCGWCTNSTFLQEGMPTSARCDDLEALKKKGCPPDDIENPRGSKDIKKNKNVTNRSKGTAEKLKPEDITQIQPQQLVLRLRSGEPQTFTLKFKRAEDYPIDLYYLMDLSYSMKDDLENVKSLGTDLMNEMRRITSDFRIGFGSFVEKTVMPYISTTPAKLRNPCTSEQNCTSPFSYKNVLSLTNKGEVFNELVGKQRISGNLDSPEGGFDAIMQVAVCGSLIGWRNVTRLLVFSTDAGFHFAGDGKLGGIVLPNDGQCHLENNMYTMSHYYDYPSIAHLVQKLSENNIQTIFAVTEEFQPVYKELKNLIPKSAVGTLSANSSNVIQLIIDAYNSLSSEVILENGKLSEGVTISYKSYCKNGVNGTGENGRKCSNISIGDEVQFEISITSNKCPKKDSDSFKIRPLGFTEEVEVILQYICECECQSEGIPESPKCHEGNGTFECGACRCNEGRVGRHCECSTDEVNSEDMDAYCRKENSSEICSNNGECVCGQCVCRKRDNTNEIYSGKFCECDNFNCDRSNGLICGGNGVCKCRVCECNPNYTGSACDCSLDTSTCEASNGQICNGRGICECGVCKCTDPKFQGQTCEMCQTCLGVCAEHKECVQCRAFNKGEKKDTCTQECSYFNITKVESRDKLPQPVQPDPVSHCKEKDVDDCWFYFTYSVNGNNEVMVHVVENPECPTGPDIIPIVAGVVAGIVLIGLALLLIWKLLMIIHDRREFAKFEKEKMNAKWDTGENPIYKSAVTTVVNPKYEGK

Row | effect of a mutation on the interaction [1] | effect of a mutation on the interaction [2] | effect of a mutation on the interaction [3] | Variant
1 | increasing interaction | increasing interaction | – | MAAAGGGAAAAAGRAYSFKVVLLGEGCVGKTSLVLRYCENKFNDKHITTLQASFLTKKLNIGGKRVNLAIWDTAGLERFHALGPIYYRDSNGAILVYDVTDEDSFQKVKNWVKELRKMLGNEICLCIVGNKIDLEKERHVSIQEAESYAESVGAKHYHTSAKQNKGIEELFLDLCKRMIETAQVDERAKGNGSSQAGAARRGVQIIDDEPQAQSSGGCCSSG [Q76L]
2 | – | decreasing interaction | decreasing interaction | MAAAGGGAAAAAGRAYSFKVVLLGEGCVGKNSLVLRYCENKFNDKHITTLQASFLTKKLNIGGKRVNLAIWDTAGQERFHALGPIYYRDSNGAILVYDVTDEDSFQKVKNWVKELRKMLGNEICLCIVGNKIDLEKERHVSIQEAESYAESVGAKHYHTSAKQNKGIEELFLDLCKRMIETAQVDERAKGNGSSQAGAARRGVQIIDDEPQAQSSGGCCSSG [T31N]
